Measured values reported in article doi:10.1101/2020.07.07.187567.

Biological target: LhgR, L-2-HG catabolism regulator of Pseudomonas putida W619 (His6-tagged) (Pseudomonas putida W619)
Experiment: SEC

**Q.** How did the stoichiometry N turn out when “LhgR, L-2-HG catabolism regulator of Pseudomonas putida W619 (His6-tagged) (natural protein)” was run?
**A.** The stoichiometry N was 2.
